Experimental data from IntAct's records for PubMed 20453063.

Molecular target: chd8_human CHD8 (UniProt Q9HCK8)
Sequence of UniProt Q9HCK8 (Q9HCK8 whole entry): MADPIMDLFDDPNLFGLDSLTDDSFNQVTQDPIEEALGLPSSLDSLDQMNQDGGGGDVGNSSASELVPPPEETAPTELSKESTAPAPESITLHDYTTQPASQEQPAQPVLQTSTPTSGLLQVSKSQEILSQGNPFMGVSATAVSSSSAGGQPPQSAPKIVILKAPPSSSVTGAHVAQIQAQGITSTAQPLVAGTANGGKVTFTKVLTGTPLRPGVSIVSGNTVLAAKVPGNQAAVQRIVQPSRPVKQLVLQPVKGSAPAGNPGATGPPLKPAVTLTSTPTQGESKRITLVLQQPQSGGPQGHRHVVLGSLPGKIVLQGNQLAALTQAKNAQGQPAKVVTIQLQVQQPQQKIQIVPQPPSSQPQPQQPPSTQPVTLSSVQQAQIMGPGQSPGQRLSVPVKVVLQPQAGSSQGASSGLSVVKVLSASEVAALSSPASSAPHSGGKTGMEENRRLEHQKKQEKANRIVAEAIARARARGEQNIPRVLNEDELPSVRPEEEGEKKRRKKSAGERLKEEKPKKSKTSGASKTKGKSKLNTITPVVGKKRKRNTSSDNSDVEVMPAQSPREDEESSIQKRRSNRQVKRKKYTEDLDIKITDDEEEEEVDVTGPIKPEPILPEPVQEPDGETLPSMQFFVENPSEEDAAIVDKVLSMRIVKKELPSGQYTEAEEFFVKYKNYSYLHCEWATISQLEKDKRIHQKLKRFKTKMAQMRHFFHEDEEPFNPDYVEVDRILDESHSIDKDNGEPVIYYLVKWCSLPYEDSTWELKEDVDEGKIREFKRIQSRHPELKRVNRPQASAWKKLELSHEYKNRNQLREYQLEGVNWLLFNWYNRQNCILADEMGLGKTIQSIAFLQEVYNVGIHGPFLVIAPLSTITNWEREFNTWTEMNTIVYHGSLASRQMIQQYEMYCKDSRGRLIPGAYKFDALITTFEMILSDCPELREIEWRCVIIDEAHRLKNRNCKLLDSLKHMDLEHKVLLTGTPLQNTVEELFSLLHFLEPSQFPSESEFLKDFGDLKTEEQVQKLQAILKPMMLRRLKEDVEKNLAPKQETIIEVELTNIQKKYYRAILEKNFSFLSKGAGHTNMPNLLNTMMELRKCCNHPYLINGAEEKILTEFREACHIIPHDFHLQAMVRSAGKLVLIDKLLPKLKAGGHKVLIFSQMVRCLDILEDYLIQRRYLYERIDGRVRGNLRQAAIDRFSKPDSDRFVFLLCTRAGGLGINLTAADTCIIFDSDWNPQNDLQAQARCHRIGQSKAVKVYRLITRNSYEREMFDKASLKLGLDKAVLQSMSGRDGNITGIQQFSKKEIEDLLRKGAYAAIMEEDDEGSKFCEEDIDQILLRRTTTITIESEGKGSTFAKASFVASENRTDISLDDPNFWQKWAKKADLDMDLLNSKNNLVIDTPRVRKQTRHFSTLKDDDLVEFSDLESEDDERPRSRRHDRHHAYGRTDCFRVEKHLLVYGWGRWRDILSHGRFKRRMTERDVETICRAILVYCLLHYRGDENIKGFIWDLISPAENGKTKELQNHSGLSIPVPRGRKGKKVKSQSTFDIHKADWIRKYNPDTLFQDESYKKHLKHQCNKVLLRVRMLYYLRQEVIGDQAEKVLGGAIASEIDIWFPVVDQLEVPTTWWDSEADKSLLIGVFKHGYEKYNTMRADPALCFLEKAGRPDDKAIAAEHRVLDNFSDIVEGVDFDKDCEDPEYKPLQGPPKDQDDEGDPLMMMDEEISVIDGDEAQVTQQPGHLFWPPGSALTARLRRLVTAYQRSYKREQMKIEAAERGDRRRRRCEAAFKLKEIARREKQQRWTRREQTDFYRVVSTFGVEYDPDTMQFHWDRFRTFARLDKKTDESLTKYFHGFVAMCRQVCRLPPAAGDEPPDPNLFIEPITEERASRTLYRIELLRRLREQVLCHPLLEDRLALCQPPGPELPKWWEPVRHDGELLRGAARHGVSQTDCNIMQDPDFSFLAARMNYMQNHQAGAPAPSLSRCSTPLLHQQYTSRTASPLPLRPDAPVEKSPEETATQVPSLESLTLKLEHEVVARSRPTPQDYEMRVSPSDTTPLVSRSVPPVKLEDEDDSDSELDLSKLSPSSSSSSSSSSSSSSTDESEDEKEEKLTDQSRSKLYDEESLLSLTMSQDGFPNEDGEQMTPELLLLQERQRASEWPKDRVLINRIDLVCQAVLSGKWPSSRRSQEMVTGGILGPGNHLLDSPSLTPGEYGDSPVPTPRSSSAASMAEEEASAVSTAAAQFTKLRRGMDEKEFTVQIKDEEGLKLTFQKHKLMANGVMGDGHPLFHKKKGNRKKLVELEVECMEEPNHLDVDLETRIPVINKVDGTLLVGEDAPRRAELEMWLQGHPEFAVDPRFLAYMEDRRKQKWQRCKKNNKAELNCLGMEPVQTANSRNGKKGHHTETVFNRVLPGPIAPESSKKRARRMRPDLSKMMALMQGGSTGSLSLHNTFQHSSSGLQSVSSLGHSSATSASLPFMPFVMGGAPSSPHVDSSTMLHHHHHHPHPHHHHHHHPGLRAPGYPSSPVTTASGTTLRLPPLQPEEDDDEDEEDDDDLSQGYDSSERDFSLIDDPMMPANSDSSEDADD

Substance	effect of a mutation on the interaction
Chromodomain-helicase-DNA-binding protein 7 (Homo sapiens), Q9P2D1 H2096R	disrupting interaction
Chromodomain-helicase-DNA-binding protein 7 (Homo sapiens), Q9P2D1 W2091R	disrupting interaction
Chromodomain-helicase-DNA-binding protein 7 (Homo sapiens), Q9P2D1 G2108R	disrupting interaction
